The source of these data is PMC7647994 (2020).

As usually defined, the stoichiometry N is a count of units in the complex or per binding partner. As usually defined, the Kd is the concentration at which binding is half-saturated.

In assay [1] the target is H10-tagged zinc-binding domain of human CLPX (human). Nature of the assay: SEC; Superose 12; H10PDIP38, ZBD, or both together; elution profiles from quantified protein bands.
Assay [2] has the same target. Nature of the assay: pull-down; series of pull-down experiments to estimate the affinity of PDIP38 for the ZBD (Supplementary Fig. 3).
In assay [3] the target is T1, H10-tagged zinc-binding domain of human CLPX (human).
T1 chain: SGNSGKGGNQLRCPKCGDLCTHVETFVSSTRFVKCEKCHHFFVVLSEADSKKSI

Like-named read-outs stand apart in the source and are kept apart here.

“H10-tagged zinc-binding domain of human CLPX (domain or fragment)” displayed a stoichiometry N in assay [1] of 2.

B1: untagged PDIP38 (natural protein)
chain: SSRNRPEGKVLETVGVFEVPKQNGKYETGQLFLHSIFGYRGVVLFPWQARLYDRDVASAAPEKAENPAGHGSKEVKGKTHTYYQVLIDARDCPHISQRSQTEAVTFLANHDDSRALYAIPGLDYVSHEDILPYTSTDQVPIQHELFERFLLYDQTKAPPFVARETLRAWQEKNHPWLELSDVHRETTENIRVTVIPFYMGMREAQNSHVYWWRYCIRLENLDSDVVQLRERHWRIFSLSGTLETVRGRGVVGREPVLSKEQPAFQYSSHVSLQASSGHMWGTFRFERPDGSHFDVRIPPFSLESNKDEKTPPSGLHW
Regarding B1, in assay [2], the Kd was 1800 nM.

B2: His10-tagged recombinant PDIP38 (H10PDIP38) (natural protein)
chain: SSRNRPEGKVLETVGVFEVPKQNGKYETGQLFLHSIFGYRGVVLFPWQARLYDRDVASAAPEKAENPAGHGSKEVKGKTHTYYQVLIDARDCPHISQRSQTEAVTFLANHDDSRALYAIPGLDYVSHEDILPYTSTDQVPIQHELFERFLLYDQTKAPPFVARETLRAWQEKNHPWLELSDVHRETTENIRVTVIPFYMGMREAQNSHVYWWRYCIRLENLDSDVVQLRERHWRIFSLSGTLETVRGRGVVGREPVLSKEQPAFQYSSHVSLQASSGHMWGTFRFERPDGSHFDVRIPPFSLESNKDEKTPPSGLHW
In the case of B2, in assay [1], the stoichiometry N (PDIP38 per ZBD2) is 1.

B3: GST-PDIP38 fusion protein (natural protein)
chain: SSRNRPEGKVLETVGVFEVPKQNGKYETGQLFLHSIFGYRGVVLFPWQARLYDRDVASAAPEKAENPAGHGSKEVKGKTHTYYQVLIDARDCPHISQRSQTEAVTFLANHDDSRALYAIPGLDYVSHEDILPYTSTDQVPIQHELFERFLLYDQTKAPPFVARETLRAWQEKNHPWLELSDVHRETTENIRVTVIPFYMGMREAQNSHVYWWRYCIRLENLDSDVVQLRERHWRIFSLSGTLETVRGRGVVGREPVLSKEQPAFQYSSHVSLQASSGHMWGTFRFERPDGSHFDVRIPPFSLESNKDEKTPPSGLHW
For the molecule B3, in assay [3], the Kd is around 1800 nM.
